Reference: patent US20170342126A1 (MAYO FOUNDATION FOR MEDICAL EDUCATION AND RESEARCH, published 2017)
Read-outs that look alike come from different tables or passages of the source. Values belong to the molecule of their own block, whether it stands above or below them.

Experiments:
HLA-DR DRB1*1302 (human) [1] = assay: radioligand inhibition, purified HLA-DR
HLA-DR DRB5*0101 (human) = assay: radioligand inhibition, purified HLA-DR
HLA-DR DRB1*0901 (human) = assay: radioligand inhibition, purified HLA-DR
HLA-DR DRB1*0701 = HLA-DR DRB1*0701 (human); assay: radioligand inhibition, purified HLA-DR
[2] = target: purified HLA-DR molecule DRB5*0101 (human); assay: radioligand inhibition, purified HLA-DR
[3] = target: purified HLA-DR molecule DRB1*1302 (human); assay: radioligand inhibition, purified HLA-DR
HLA-DR DRB1*1501 (human) = assay: radioligand inhibition, purified HLA-DR
[4] = target: purified HLA-DR molecule DRB1*0901 (human); assay: radioligand inhibition, purified HLA-DR
[5] = target: at least four different HLA-DR variants (of 15 different purified HLA-DR molecules); assay: radioligand inhibition, purified HLA-DR
HLA-DR DRB1*0405 (human) = target: T1, HLA-DR DRB1*0405 (human); assay: radioligand competition, purified HLA-DR; conditions: remark: other sources report otherwise
T1 chain 1: not shown
T1 chain 2: not shown

HLA-DR DRB1*0401 (human) [6] = target: T2, HLA-DR DRB1*0401 (human); assay: radioligand competition, purified HLA-DR; conditions: remark: other sources report otherwise
T2 chain 1: not shown
T2 chain 2: not shown

HLA-DR DRB1*0802 (human) = target: T3, HLA-DR DRB1*0802 (human); assay: radioligand inhibition, purified HLA-DR; conditions: remark: other sources report otherwise
T3 chain 1: not shown
T3 chain 2: not shown

HLA-DR DRB1*0401 (human) [7] = target: T2, HLA-DR DRB1*0401 (human); assay: radioligand inhibition, purified HLA-DR; conditions: remark: other sources report otherwise
HLA-DR DRB1*1302 (human) [8] = target: T4, HLA-DR DRB1*1302 (human); assay: radioligand inhibition, purified HLA-DR; conditions: remark: other sources report otherwise
T4 chain 1: not shown
T4 chain 2: not shown

HLA-DR DRB1*0101 (human) = target: T5, HLA-DR DRB1*0101 (human); assay: radioligand competition, purified HLA-DR; conditions: remark: other sources report otherwise
T5 chain 1: not shown
T5 chain 2: not shown

HLA-DR DRB1*0404 (human) = target: T6, HLA-DR DRB1*0404 (human); assay: radioligand competition, purified HLA-DR; conditions: remark: other sources report otherwise
T6 chain 1: not shown
T6 chain 2: not shown

HLA-DR DRB4*0101 (human) = target: T7, HLA-DR DRB4*0101 (human); assay: radioligand inhibition, purified HLA-DR; conditions: remark: other sources report otherwise
T7 chain 1: not shown
T7 chain 2: not shown

Molecule: Peptide 9019.0009, Cyclin D1.129
- IC50 (HLA-DR DRB1*1302 (human) [1]): 3490 nM

Molecule: Peptide 9019.0005, CEA.122
- IC50 (HLA-DR DRB1*1302 (human) [1]): 9960 nM
- IC50 (HLA-DR DRB1*0701): 6340 nM

Molecule: Peptide 9019.0115, CEA.126
- IC50 (HLA-DR DRB1*1501 (human)): 376 nM
- IC50 (HLA-DR DRB1*1302 (human) [1]): 394 nM

Molecule: HNQVRQVPLQRLRIV [Peptide 9019.0034, Her2/neu.88]
- IC50 (HLA-DR DRB1*0802 (human)): 95 nM
- IC50 [5]: < 1000 nM

Molecule: KELAVFREKVTEQHR [9019.0186]
- IC50 (HLA-DR DRB1*0401 (human) [7]): 21 nM

Molecule: TTPVTGASPGGLREL [Peptide 9019.0037, Her2/neu.126]
- IC50 (HLA-DR DRB1*1302 (human) [8]): 605 nM

Molecule: TEILKGGVLIQRNPQ [Peptide 9019.0039]
- IC50 (HLA-DR DRB1*0101 (human)): 71 nM

Molecule: GYVIGTQQATPGPAY [9019.0110]
- IC50 (HLA-DR DRB4*0101 (human)): 6.3 nM

Molecule: CYGLGMEHLREVRAV [Peptide 9019.0044]
- IC50 (HLA-DR DRB1*0101 (human)): 139 nM

Molecule: GTDMKLRLPASPETH [Peptide 9019.0027, Her2/neu.28]
- IC50 (HLA-DR DRB1*0701): 6810 nM

Results, then the molecule that gave them:

- IC50 (HLA-DR DRB1*1302 (human) [1]): 1920 nM
- IC50 (HLA-DR DRB5*0101 (human)): 2280 nM
Molecule: Peptide 9019.0126, CEA.354

- IC50 (HLA-DR DRB1*0901 (human)): 1910 nM
Molecule: Peptide 9019.0118, CEA.176

- IC50 [2]: 2280 nM
- IC50 [3]: 1920 nM
Molecule: Peptide 9019.0126 (CEA.354)

- IC50 [4]: 1910 nM
Molecule: Peptide 9019.0118 (CEA.176)

- IC50 [5]: < 1000 nM
Molecule: AQTFVALCATDVKFI [Peptide 9019.0168, Cyclin D1.182]

- IC50 (HLA-DR DRB1*0405 (human)): 3170 nM
- IC50 (HLA-DR DRB1*0401 (human) [6]): 95 nM
Molecule: KLCIYTDNSIRPEEL [Peptide 9019.0159]

- IC50 (HLA-DR DRB1*0405 (human)): 1450 nM
Molecule: SDSVILNVLYGPDAP [Peptide 9019.0119]

- IC50 (HLA-DR DRB1*0405 (human)): 1850 nM
- IC50 (HLA-DR DRB1*0404 (human)): 26 nM
Molecule: VCGIQNSVSANRSDP [Peptide 9019.0135]
